Experimental findings from patent publication US11358997 are described below.

In the assay the target is mouse leptin receptor on Ba/F3-mLR cells (mouse) (UniProt P48356). Description: cell-based or functional assay.
Chain of UniProt P48356 (P48356 22-1162): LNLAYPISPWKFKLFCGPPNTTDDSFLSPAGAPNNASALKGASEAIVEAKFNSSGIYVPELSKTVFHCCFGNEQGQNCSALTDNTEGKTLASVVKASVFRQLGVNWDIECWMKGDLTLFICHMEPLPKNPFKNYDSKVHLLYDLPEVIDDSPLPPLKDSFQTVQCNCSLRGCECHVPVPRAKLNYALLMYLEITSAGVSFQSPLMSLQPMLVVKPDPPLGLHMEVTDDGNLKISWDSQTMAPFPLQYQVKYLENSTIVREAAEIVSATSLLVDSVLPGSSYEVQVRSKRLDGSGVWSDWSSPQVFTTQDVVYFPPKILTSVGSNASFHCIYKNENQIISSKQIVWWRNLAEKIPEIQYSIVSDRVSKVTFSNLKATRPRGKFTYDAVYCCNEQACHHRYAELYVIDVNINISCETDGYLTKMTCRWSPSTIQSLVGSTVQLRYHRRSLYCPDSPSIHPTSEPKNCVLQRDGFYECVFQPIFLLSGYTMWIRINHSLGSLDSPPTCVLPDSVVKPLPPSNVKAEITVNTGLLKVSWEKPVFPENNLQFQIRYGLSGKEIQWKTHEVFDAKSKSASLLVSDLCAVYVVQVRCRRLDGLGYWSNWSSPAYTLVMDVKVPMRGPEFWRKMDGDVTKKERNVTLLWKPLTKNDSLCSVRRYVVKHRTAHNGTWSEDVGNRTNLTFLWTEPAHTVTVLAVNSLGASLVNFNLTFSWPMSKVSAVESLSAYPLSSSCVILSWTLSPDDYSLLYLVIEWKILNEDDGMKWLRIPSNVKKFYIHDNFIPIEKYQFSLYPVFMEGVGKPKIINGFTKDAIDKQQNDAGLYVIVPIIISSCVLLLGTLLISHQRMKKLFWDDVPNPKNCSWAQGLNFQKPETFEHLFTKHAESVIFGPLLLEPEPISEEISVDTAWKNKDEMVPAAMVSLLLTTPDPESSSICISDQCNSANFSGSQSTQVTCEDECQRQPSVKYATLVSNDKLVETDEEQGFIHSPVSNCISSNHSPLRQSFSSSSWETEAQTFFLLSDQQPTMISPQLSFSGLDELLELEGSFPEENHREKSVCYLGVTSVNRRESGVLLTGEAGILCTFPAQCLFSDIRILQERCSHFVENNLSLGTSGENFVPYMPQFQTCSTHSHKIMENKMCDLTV

Take “scTNF WT-6xGGS-mLeptin L86N-FLAG (from UniProt P01375 77-233; P01375 80-233; P01375 80-233; P41160 22-167)”: the induction of proliferation of Ba/F3-mLR cells (XTT assay, 4 days) (times less potent) was found to be 10.
Substance “scTNF WT-6xGGS-mLeptin L86S-FLAG (from UniProt P01375 77-233; P01375 80-233; P01375 80-233; P41160 22-167)” displayed an induction of proliferation of Ba/F3-mLR cells (XTT assay, 4 days) (times less potent) of 3.
